Experimental data published in patent publication US20240279288A1, “APPLICATION OF PLANT JAZ PROTEINS AND DERIVED POLYPEPTIDES IN PREVENTION AND TREATMENT OF HUMAN AND ANIMAL TUMORS” (ANYANG INSTITUTE OF SINO-COTTON INDUSTRY INNOVATION, priority 2021, published 2024).

Molecular target: uPAR (Homo sapiens, UniProt Q03405)
Assay: Yeast two hybrid with uPAR
Assay type: binding
Parameters: the CDS of the above genes was subcloned to pGADT7 (YouBio, VT1639); expressed in transfected cells; host or cells: yeast Y2HGold
From the text: […]
In order to explore how GhJAZ1 enters cancer cells, we cloned the genes of most tumor surface receptors, including uPAR (NCBI database accession number of NM_002659.4), CCK1R (NP_000721.1), CCK2R (NP_001350481.1), HER2 (NP_004439.2), GRPR (NP_005305.1), MUC1 (NP_001358649.1), VEGFR1 (NP_002010.2), Insulin receptor (NM_000208.4), NTR (XM_011528827.2), PSMA (XM_017017432.1), TFR1 (NM_001128148.3), TFR2 (NM_003227.4), PEPT1 (NM_005073.4), APN (NM_001150.3). […] We detected the interaction of GhJAZ1 with uPA (as the ligand of uPAR, NCBI database accession number of NP_002649.2) and uPAR by yeast two hybrid (the steps of the experiment as Example 3). […]

Chain of uPAR (Q03405 23-305): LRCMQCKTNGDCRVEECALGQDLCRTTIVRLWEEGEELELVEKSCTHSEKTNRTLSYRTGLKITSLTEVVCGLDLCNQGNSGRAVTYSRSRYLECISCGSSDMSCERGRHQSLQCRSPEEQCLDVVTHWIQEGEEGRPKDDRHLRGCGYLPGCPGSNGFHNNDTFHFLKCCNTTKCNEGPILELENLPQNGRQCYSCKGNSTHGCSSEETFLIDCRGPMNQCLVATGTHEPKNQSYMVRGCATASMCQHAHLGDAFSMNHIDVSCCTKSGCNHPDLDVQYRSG

Row | Molecule | interaction with uPAR
1 | GhJAZ1: cotton JAZ1 protein, gene number Gh_A05G0260, sequence SEQ ID No. 4; prokaryotically expressed with His tag, about 30 KD (protein, His tag, prokaryotically expressed with His tag, about 30 KD) MSSCSESTAMKPARSPEKPSFAQTCNLLSQYLKEKGSFGDLSLGMTCNVEANGTPVVPPPTMNLFPLNDKSDDVCGRNGGNPKNLTSMDLFPQQAGLASKDDSPNKLEPQTAPMTIFYGGQVIVFNDFPANKAKEIMLLASNSSSQSNNSFNPIPFTSSIARSPIESSIGVPPTSKPVHPAQRAVPGDLPIARRASLHRFLEKRKDRITAKAPYQINNSAAAPSLSGDNKSWLGLAAQSP | interacted
2 | GhJAZ1 after deletion of NT domain: GhJAZ1 mutant with NT domain deleted, protein sequence SEQ ID No. 83 (protein) MSSCSESTAMKPARSPEANGTPVVPPPTMNLFPLNDKSDDVCGRNGGNPKNLTSMDLFPQQAGLASKDDSPNKLEPQTAPMTIFYGGQVIVFNDFPANKAKEIMLLASNSSSQSNNSFNPIPFTSSIARSPIESSIGVPPTSKPVHPAQRAVPGDLPIARRASLHRFLEKRKDRITAKAPYQINNSAAAPSLSGDNKSWLGLAAQSP | significantly weakened
